Measurements taken from article PMC11515964.

Biological target: T1, Full-length human GPR1, wild type, N-terminal FLAG tag (pcDNA3.1(+)) (human) (UniProt P46091)
T1 sequence: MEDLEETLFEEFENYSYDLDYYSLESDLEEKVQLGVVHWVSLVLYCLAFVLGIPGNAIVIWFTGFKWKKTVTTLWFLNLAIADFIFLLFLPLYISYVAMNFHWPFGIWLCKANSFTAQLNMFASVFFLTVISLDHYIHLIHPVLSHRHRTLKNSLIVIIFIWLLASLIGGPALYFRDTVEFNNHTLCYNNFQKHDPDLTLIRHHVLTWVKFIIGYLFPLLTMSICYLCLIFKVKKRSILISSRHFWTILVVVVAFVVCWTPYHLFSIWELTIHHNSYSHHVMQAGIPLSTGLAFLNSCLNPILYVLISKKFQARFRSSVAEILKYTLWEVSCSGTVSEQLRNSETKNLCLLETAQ

EC50 of cAMP inhibition (HeLa) and NanoBiT G protein dissociation (HEK293T): 0.1 nM
B1: Full-length chemerin (abcam, ab256228) (ligand)
chain: ELTEAQRRGLQVALEEFHKHPPVQWAFQETSVESAVDTPFPAGIFVRLEFKLQQTSCRKRDWKKPECKVRPNGRKRKCLACIKLGSEDKVLGRLVHCPIETQVLREAEEHQETQCLRVQRAGEDPHSFYFPGQFAFS
